The text below walks through data of ChEMBL document CHEMBL1128147, “Mechanistic support for the stepwise process for inactivation of class A -lactamases by clavulanate” (Bioorg Med Chem Lett, 1995).

Substrate in the data set: O=C(O)[C@H]1C(CCO)O[C@@H]2CC(=O)N21

For orientation: Km means the concentration of substrate that gives half-maximal velocity.

Description: Km for inactivation of TEM-1 beta-lactamase

B1: Beta-lactamase (Enterobacter cloacae), P05364 (protein)
chain: MMRKSLCCALLLGISCSALATPVSEKQLAEVVANTITPLMKAQSVPGMAVAVIYQGKPHYYTFGKADIAANKPVTPQTLFELGSISKTFTGVLGGDAIARGEISLDDAVTRYWPQLTGKQWQGIRMLDLATYTAGGLPLQVPDEVTDNASLLRFYQNWQPQWKPGTTRLYANASIGLFGALAVKPSGMPYEQAMTTRVLKPLKLDHTWINVPKAEEAHYAWGYRDGKAVRVSPGMLDAQAYGVKTNVQDMANWVMANMAPENVADASLKQGIALAQSRYWRIGSMYQGLGWEMLNWPVEANTVVEGSDSKVALAPLPVAEVNPPAPPVKASWVHKTGSTGGFGSYVAFIPEKQIGIVMLANTSYPNPARVEAAYHILEALQ
B1: the Michaelis-Menten constant (Km) came to 2.2 µM.
